Measured values reported in PMC3763546, “Structural insight into negative DNA supercoiling by DNA gyrase, a bacterial type 2A DNA topoisomerase” (Nucleic Acids Research, 2013).

Target: the molecule itself
Experiment: native MS; native ESI-MS (time-of-flight), 200 mM ammonium acetate pH 7.5, sample at 8 uM; without and with ADPNP, without and with the 155 bp DNA

B1: Thermus thermophilus GyrB-GyrA fusion protein (GyrBA-fus) (enzyme)
chain: MSYDASAIRVLKGLEGVRHRPAMYIGGTGVEGYHHLFKEILDNAVDEALAGYATEILVRLNEDGSLTVEDNGRGIPVDLMPEEGKPAVEVIYTTLHSGGKFEQGAYKVSGGLHGVGASVVNALSEWTVVEVFREGKHHRIAFSRGEVTEPLRVVGEAPRGKTGTRVTFKPDPEIFGNLRFDPSKIRARLREVAYLVAGLKLVFQDRQHGKEEVFLDKGGVASFAKALAEGEDLLYEKPFLIRGTHGEVEVEVGFLHTQGYNAEILTYANMIPTRDGGTHLTAFKSAYSRALNQYAKKAGLNKEKGPQPTGDDLLEGLYAVVSVKLPNPQFEGQTKGKLLNPEAGTAVGQVVYERLLEILEENPRIAKAVYEKALRAAQAREAARKARELVRRQNPLESDELPGKLADCQTENPEEAELFIVEGDSAGGSAKQGRDRRFQAILPLRGKILNVEKAGLSKALKNAEVRAMVSAIGVGIGGDGEAHFDLEGLRYHKIIIMTDADVDGSHIRTLLLTFFYRYMRPLIERGHVYIAQPPLYRLQVGKKVEYLYSDEELQARLKELEGKHYEVQRFKGLGEMNPEQLWETTMNPEKRVLKRVELQDALEASELFEKLMGQEVAPRREFIEEHARYAELDIGDLMAQVLPVEITEELKQSFINYAMSVIVDRALPDVRDGLKPVQRRILFGAYQEGVLPGRKHVKSAKIVGEVMGKYHPHGDAAIYDALVRMAQPWNLRYPLIDGQGNFGSIDGDPPAAQRYTEARLSPIGAEMLLDIDKDTVDFRPNYDGSLKEPEVLPAAIPNLLVNGASGIAVGMATSLPPHNLSEVVDALVAMIENPAITLEEVMRHLPGPDFPTGGKLSKKGIKEAYATGRGSLKVRAKVRVEEKGQRPVLVVTEIPYQVNKASLIAQIAALVKAKKIEDIVGLRDESDRQGLRIAIELKRGANPQVVLNQLYKHTALQTSFTVNLLAIVDGEPKVLSLLDLMRHYLDHRKEVVRRRSLFELRKAEERAHVLEGLLIALDHIDEVIALIRGSEDAPKARIALMERFGLSEAQAQAILDMRLQRLVALEREKLLEEYRGLMEEIARLKAILEDEARLLAEVKADLLRVKEKYGDARRTLITEFEETFNPEDLIEDEPMVITLTAQGFLKRLPLESYRAQGRGGKGLLAGRTKEEDEATHVFVADAHDDLLLFTNRGRVYRLKVYELPEMGRQARGVHVKSLLPLAEDEEVAALLSVRGLDQEGYLVFATERGLVKRTALKEYQNLGQAGLIAIRLQEGDRLVGVALSDPEDEAILATQEGQAIRFPLEEVRATGRDTQGVIGVRFKKPEDRVVSLVVVKPGEMVDLLSVSTRGYGKRTPLSEYPLQGRGGMGVITYAVSTKVGRLAALLKVRGGEDLLVLSRRGLAIRTPVAEIRQYSRATAGVRVMNLPEDDEVASAFVVEEEK
notes: DNA gyrase subunit B (GyrB), Thermus thermophilus, amplified from genomic DNA; three-amino acid G-D-L linker between the C-terminus of GyrB and the N-terminus of GyrA; DNA gyrase subunit A (GyrA), Thermus thermophilus, amplified from genomic DNA; The His10 tag stands upstream of a PreScission protease (P3C) site; Details of cloning and purification are in the Supplementary Methods; A dimer of the …
- stoichiometry N: 2
